Target: T1, bovine serum albumin (Bos taurus, UniProt P02769)
T1 construct: also called BSA
Assay: ELISA
Conditions: both partners purified

T1 sequence (P02769 25-607): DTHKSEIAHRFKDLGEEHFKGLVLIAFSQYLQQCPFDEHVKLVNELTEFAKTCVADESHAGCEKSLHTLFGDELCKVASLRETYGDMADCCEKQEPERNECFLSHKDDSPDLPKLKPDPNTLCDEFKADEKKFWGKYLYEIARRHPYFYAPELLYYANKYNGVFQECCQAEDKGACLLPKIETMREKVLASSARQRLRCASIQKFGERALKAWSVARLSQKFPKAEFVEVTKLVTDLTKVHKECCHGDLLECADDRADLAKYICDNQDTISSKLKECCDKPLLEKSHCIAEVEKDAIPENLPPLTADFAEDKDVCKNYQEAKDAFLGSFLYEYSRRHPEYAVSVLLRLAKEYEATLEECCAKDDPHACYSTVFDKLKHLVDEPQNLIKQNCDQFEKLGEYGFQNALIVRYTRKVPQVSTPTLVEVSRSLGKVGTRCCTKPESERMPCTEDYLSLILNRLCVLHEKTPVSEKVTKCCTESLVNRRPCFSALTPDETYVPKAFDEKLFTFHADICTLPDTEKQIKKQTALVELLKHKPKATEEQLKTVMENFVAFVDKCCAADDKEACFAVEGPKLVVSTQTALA

B1: fluorescein-specific VHH-D4 (VHH)
VHH: QVQLVESGGALVQPGGSLRLSCAASGFTFGSFSMSWYRQATGKEREWVAGLSAGSSSTYYADSVKGRFTISRDNARNTVYLQMNSLKPEDTAVYYCARRTNTSSGSAGSFSTCIDDWGQGTQVTVSS
notes: also called clone D4
  binding result: no binding
